Test results from PMC12013513 (2025).

B1: GST-ANI-1^C-term (681-1159 AA) [C. elegans] / 10xHis-RHO-1^WT (wild type RHO-1, 1-188 AA) [C. elegans] (parent complex)
chain 1: DDDATTQFPVPERSRKSSSQLAYSVSFYRKIQRDRNEESSTVLAGPVISQISPSAPPMSSSLTSQQKLRQLTTGPANGARIVESAKDAHDRIKRAIQVEEQLVAQSKRAMILARDKPSFRGSREEFEAQWAMLRHVEKHRALLTEYDRLKRDGPRIIDGPRGTITVSQLSVNMARDYVSANIASSKKSDEVFYFAAILRYGEQVDVSKMVTSDGGLNRRGVLEFPVPLMLTGIPPDFRATVEIYGQRSMRESTSHEDKYKLKNSTFKAKTRNTFLGGGSTSSANQSLFVDPAASSSSTSSTTSNFNLLGTFSFDINCPGKHLYNMSHTVYPLEGITQMKVRKQAIDGADITYHGFLSMYQRTGEGLGSWTRYWCALENGEMKFWKQPEDEGTKGYTALMDLSTCCRSEGASVVEDICPFPNSFHIDVWAPKMDTSDPRGIERLRVMLAADTAQDLQTWLSLINSTSKQLCTWRNPIVNQ
chain 2: not shown

Variants of: B1
Assay: pull-down; parent: 14; read off a plot

Variant | response
chain 1 A109D, chain 1 E127K | ~17 % of Bound RHO-1
